{"source": "patent US7329737", "about": "(DYAX, dated 2008)", "binders": {"B1": {"name": "M0137-E01 (Fab, V domains shown)", "VH": "EVQLLESGGGLVQPGGSLRLSCAASGFTFSRYSMTWVRQAPGKGLEWVSSIYPSGGKTTYADSVKGRFTISRDNSKNTLYLQMNSLRAEDTAVYYCASMVAPYYYDSSGYPPAEYFQHWGQGTLVTVSS", "VL": "AQSELTQPPSASGTPGQRVTISCSGTNSNIGSNSVFWYQQLSGTAAPKVLILRNSQRPSGVSDRFSGSKSGTSASLAISGLRSEDEADYYCATWDDSLRSPVFGGGTKLTVLG", "notes": "also called M137-E01"}, "B2": {"name": "M0134-D07 (Fab, V domains shown)", "VH": "EVQLLESGGGLVQPGGSLRLSCAASGFTFSRYFMIWVRQAPGKGLEWVSSIVPSGGPTRYADSVKGRFTISRDNSKNTLYLQMNSLRAEDTAVYYCARRGPVYYYDSSGSHSAFDIWGQGTMVTVSS", "VL": "DIQMTQSPSSLSASVGDRVTITCRASQGIRNDLGWYQQKPGKAPKLLIYAASSLQSGVPSRFSGSGSGTDFTLTISSLQPEDFATYYCLQDYNYPRTFGQGTKVEIKR"}, "B3": {"name": "M0112-D07 (Fab, V domains shown)", "VH": "EVQLLESGGGLVQPGGSLRLSCAASGFTFSFYSMSWVRQAPGKGLEWVSRIRPSGGRTDYADSVKGRFTISRDNSKNTLYLQMNSLRAEDTAVYYCARDRLYYYGSGSYYYGAFDIWGQGTMVTVSS", "VL": "DIQMTQSPSSLSASVGDRVTITCRASQTIRTYLNWYQQKPGIAPKFLIYDASNLQTGVPSRFSGSGSGTHFTLTISSLQPEDFGTYYCQQSYGGPPTFGRGTKIEIKR"}, "B4": {"name": "M0093-F09 (Fab, V domains shown)", "VH": "EVQLLESGGGLVQPGGSLRLSCAASGFTFSDYRMWWVRQAPGKGLEWVSYIVPSGGQTSYADSVKGRFTISRDNSKNTLYLQMNSLRAEDTAVYYCARGSAYQRRTYSSGWYSASGRRGTAEYFQHWGQGTLVTVSS", "VL": "AQSALTQPASVSGSPGQSITISCTGTSTDDVGGYNYVSWYQQHPGKAPKLMIYDVINRPSGVSNRFSGSKSGNTASLTISGLQAEDEADYYCSSYTSRGTRVFGTGTKVTVLG", "notes": "also called M093-F09"}, "B5": {"name": "M0117-F04 (Fab, V domains shown)", "VH": "EVQLLESGGGLVQPGGSLRLSCAASGFTFSMYVMNWVRQAPGKGLEWVSRIGSSGGGTLYADSVKGRFTISRDNSKNTLYLQMNSLRAEDTAVYYCARVSVYRIRNYYYYAMDVWGQGTTVTVSS", "VL": "DIQMTQSPSSLSASVGDRVTITCRASQGIGNYLAWYQQKPGKAPNLLIYKTSNLQSGVPSRFRGSGSGTEFTLTITSVQPDDFATYFCQRYDSYSQYIFGQGTKLETKR"}, "B6": {"name": "DX-2300 (M0131-F07), Fab (Fab, V domains shown)", "VH": "EVQLLESGGGLVQPGGSLRLSCAASGFTFSKYKMVWVRQAPGKGLEWVSSIYPSGGITAYADSVKGRFTISRDNSKNTLYLQMNSLRAEDTAMYYCAKDITPGGGSGFRLPKNYYYYGMDVWGQGTTVTVSS", "VL": "not shown"}, "B7": {"name": "DX-2300 (format not stated) (antibody, V domains shown)", "VH": "B6 VH", "VL": "not shown"}}, "data": [{"biological_target": "T1, hK1 (human tissue kallikrein 1), recombinant (human, UniProt P06870 25-262)", "T1 construct": "Expressed in P. pastoris from KLK1 cDNA and purified; enzymatically active; also called KLK1; Recombinant (Pichia) Kallikrein", "assay": "SPR", "units": {"Kd": "nM", "koff": "s⁻¹", "kon": "M⁻¹ s⁻¹"}, "values": [{"binder": "B1", "Kd": 1.29, "koff": 0.000158, "kon": 123000}, {"binder": "B2", "Kd": 2.69, "koff": 0.000138, "kon": 51300}, {"binder": "B3", "Kd": 5.81, "koff": 0.000781, "kon": 134000}, {"binder": "B4", "Kd": 4.66, "koff": 0.00279, "kon": 600000}, {"binder": "B5", "Kd": 6.61, "koff": 0.00197, "kon": 298000}]}, {"biological_target": "T1, hK1 (human tissue kallikrein 1), …", "assay": "SPR, biotinylated hK1 on streptavidin chip; Fab 50 nM after DX-2300 50 nM (competitor DX-2300)", "excerpt": "Epitope grouping by SPR. Biotinylated hK1 was captured on a streptavidin coated chip to a final ligand density of 88 RU. […] The signal at the end of the injection of the Fab alone is R2.", "values": [{"binder": "B1", "Fab Signal following DX-2300 (R1)": 20.8}, {"binder": "B2", "Fab Signal following DX-2300 (R1)": 2.3}, {"binder": "B3", "Fab Signal following DX-2300 (R1)": 3}, {"binder": "B4", "Fab Signal following DX-2300 (R1)": 5.9}, {"binder": "B5", "Fab Signal following DX-2300 (R1)": 6.7}]}, {"biological_target": "T1, hK1 (human tissue kallikrein 1), …", "assay": "enzyme inhibition, tight-binding analysis, competitive; Fab", "units": {"Ki": "nM"}, "values": [{"binder": "B1", "Ki": 0.9}]}, {"biological_target": "Human Tissue Kallikrein 3 (hK3, PSA) (human, UniProt P07288 25-261)", "sequence (P07288 25-261 limits assumed)": "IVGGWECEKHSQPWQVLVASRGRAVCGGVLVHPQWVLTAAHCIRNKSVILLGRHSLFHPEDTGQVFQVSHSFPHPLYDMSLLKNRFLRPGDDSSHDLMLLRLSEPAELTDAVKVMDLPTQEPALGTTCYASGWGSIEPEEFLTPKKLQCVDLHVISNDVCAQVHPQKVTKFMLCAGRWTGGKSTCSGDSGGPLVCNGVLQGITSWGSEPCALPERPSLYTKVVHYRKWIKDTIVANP", "assay": "protease inhibition assay, Fab up to 1 µM;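 also: protease and Fab preincubated 1 h at room temperature, then substrate added, fluorescence plate-reader monitoring of substrate hydrolysis rate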", "units": {"Ki": "nM"}, "description": "(§1) Selected antibodies were tested for their ability to inhibit other proteases.\n(§2) Assays were performed in black, 96 well, round bottomed microplates in a total volume of 100 μL. Enzyme and Fab inhibitor were incubated in the dark at room temperature for 1 hour prior to the addition of the indicated amount of substrate. The rate of enzymatic substrate hydrolysis was then monitored using the Spectramax Gemini XS fluorescence plate reader using the wavelengths listed in Table 3.", "values": [{"binder": "B1", "Ki": "> 1000"}, {"binder": "B6", "Ki": "> 1000"}, {"binder": "B4", "Ki": "> 1000"}]}, {"biological_target": "Human chymotrypsin (human, UniProt P17538 19-263)", "sequence (P17538 19-263)": "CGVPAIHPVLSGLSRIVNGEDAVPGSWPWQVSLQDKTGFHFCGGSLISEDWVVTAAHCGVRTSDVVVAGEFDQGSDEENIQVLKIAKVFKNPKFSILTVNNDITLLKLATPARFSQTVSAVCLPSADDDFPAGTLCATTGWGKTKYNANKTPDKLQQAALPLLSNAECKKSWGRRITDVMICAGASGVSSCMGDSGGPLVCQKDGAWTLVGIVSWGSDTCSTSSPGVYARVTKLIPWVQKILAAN", "assay": "protease inhibition assay, Fab up to 1 µM", "units": {"Ki": "nM"}, "description": "as §1, §2", "values": [{"binder": "B1", "Ki": "> 1000"}, {"binder": "B6", "Ki": "> 1000"}, {"binder": "B4", "Ki": "> 1000"}]}, {"biological_target": "Human urokinase (human, UniProt P00749 21-431, limits assumed)", "assay": "protease inhibition assay, Fab up to 1 µM", "units": {"Ki": "nM"}, "description": "as §1, §2", "values": [{"binder": "B1", "Ki": "> 1000"}, {"binder": "B6", "Ki": "> 1000"}, {"binder": "B4", "Ki": "> 1000"}]}, {"biological_target": "Human Tissue Kallikrein 5 (hK5) (human, UniProt Q9Y337 67-293, limits assumed)", "sequence (Q9Y337 67-293 limits assumed)": "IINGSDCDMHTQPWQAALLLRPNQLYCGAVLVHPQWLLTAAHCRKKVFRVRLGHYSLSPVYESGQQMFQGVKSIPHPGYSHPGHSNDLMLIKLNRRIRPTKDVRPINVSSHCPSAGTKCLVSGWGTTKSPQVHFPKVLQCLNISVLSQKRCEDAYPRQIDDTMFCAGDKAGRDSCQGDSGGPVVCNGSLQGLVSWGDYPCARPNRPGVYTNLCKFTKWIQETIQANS", "assay": "protease inhibition assay, Fab up to 1 µM", "units": {"Ki": "nM"}, "description": "as §1, §2", "values": [{"binder": "B1", "Ki": "> 1000"}, {"binder": "B6", "Ki": "> 1000"}, {"binder": "B4", "Ki": "> 1000"}]}, {"biological_target": "Human thrombin (human, UniProt P00734 328-622)", "assay": "protease inhibition assay, Fab up to 1 µM", "units": {"Ki": "nM"}, "description": "as §1, §2", "values": [{"binder": "B1", "Ki": "> 1000"}, {"binder": "B6", "Ki": "> 1000"}, {"binder": "B4", "Ki": "> 1000"}]}, {"biological_target": "Human Tissue Kallikrein 4 (hK4) (human, UniProt Q9Y5K2 31-254)", "sequence (Q9Y5K2 31-254 limits assumed)": "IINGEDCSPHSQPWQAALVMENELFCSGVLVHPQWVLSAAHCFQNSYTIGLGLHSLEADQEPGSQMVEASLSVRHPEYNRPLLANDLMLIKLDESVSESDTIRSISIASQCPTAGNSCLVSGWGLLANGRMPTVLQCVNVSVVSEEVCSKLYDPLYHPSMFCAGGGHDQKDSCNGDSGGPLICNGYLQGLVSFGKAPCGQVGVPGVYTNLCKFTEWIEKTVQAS", "assay": "protease inhibition assay, Fab up to 1 µM", "units": {"Ki": "nM"}, "description": "as §1, §2", "values": [{"binder": "B1", "Ki": "> 1000"}, {"binder": "B6", "Ki": "> 1000"}, {"binder": "B4", "Ki": "> 1000"}]}, {"biological_target": "Human plasma kallikrein (human, UniProt P03952 20-638)", "sequence (P03952 20-638 limits assumed)": "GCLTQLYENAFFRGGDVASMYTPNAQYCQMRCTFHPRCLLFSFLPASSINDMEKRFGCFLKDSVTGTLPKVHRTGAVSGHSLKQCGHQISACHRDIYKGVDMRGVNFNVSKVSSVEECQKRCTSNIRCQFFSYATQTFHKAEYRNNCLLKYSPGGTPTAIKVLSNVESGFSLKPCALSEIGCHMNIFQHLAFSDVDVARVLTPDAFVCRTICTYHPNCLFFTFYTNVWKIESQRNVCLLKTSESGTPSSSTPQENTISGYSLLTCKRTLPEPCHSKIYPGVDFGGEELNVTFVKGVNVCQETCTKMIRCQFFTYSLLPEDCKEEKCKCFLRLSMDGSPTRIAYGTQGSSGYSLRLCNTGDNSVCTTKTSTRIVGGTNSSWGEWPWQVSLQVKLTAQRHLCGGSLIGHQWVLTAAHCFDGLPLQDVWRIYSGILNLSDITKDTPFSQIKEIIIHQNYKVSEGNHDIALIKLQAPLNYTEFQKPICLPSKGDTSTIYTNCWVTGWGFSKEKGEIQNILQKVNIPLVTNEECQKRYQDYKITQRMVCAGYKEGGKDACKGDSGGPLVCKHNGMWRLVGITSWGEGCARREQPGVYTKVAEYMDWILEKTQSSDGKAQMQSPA", "assay": "protease inhibition assay, Fab up to 1 µM", "units": {"Ki": "nM"}, "description": "as §1, §2", "values": [{"binder": "B1", "Ki": "> 1000"}, {"binder": "B6", "Ki": "> 1000"}, {"binder": "B4", "Ki": "> 1000"}]}, {"biological_target": "T2, Human trypsin (human, UniProt P07477 24-247)", "T2 construct": "also called Human Pancreatic Trypsin", "assay": "protease inhibition assay, Fab up to 1 µM", "units": {"Ki": "nM"}, "description": "as §1, §2", "values": [{"binder": "B1", "Ki": "> 1000"}, {"binder": "B6", "Ki": "> 1000"}, {"binder": "B4", "Ki": "> 1000"}]}, {"biological_target": "Human activated protein kinase C (human)", "sequence (P04070 43-197, chain 1 of 2)": "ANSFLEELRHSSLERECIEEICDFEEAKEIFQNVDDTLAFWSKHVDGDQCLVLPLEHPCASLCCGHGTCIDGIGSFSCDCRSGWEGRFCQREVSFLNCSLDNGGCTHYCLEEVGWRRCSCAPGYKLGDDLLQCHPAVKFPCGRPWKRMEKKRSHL", "sequence (P04070 212-461, chain 2 of 2)": "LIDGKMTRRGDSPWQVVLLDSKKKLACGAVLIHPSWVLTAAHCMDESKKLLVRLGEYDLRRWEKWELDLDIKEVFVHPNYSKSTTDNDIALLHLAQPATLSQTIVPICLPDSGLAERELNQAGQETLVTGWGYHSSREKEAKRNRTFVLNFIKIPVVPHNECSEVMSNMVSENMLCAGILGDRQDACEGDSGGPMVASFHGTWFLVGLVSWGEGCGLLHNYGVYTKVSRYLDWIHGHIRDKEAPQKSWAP", "assay": "protease inhibition assay, Fab up to 1 µM", "units": {"Ki": "nM"}, "description": "as §1, §2", "values": [{"binder": "B1", "Ki": "> 1000"}, {"binder": "B6", "Ki": "> 1000"}]}, {"biological_target": "Human Tissue Kallikrein 2 (hK2) (human, UniProt P20151 25-261)", "sequence (P20151 25-261 limits assumed)": "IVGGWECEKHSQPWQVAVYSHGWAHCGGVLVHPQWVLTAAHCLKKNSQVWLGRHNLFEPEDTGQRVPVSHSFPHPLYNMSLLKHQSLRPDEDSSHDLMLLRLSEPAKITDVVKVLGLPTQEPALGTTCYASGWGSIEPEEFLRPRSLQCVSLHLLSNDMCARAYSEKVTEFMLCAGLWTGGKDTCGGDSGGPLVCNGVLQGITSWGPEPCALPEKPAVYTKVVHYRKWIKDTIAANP", "assay": "protease inhibition assay, Fab up to 1 µM", "units": {"Ki": "nM"}, "description": "as §1, §2", "values": [{"binder": "B1", "Ki": "> 1000"}, {"binder": "B6", "Ki": "> 1000"}, {"binder": "B4", "Ki": "> 1000"}]}, {"biological_target": "Human plasmin (human, UniProt P00747 97-810)", "sequence (P00747 97-810 limits assumed)": "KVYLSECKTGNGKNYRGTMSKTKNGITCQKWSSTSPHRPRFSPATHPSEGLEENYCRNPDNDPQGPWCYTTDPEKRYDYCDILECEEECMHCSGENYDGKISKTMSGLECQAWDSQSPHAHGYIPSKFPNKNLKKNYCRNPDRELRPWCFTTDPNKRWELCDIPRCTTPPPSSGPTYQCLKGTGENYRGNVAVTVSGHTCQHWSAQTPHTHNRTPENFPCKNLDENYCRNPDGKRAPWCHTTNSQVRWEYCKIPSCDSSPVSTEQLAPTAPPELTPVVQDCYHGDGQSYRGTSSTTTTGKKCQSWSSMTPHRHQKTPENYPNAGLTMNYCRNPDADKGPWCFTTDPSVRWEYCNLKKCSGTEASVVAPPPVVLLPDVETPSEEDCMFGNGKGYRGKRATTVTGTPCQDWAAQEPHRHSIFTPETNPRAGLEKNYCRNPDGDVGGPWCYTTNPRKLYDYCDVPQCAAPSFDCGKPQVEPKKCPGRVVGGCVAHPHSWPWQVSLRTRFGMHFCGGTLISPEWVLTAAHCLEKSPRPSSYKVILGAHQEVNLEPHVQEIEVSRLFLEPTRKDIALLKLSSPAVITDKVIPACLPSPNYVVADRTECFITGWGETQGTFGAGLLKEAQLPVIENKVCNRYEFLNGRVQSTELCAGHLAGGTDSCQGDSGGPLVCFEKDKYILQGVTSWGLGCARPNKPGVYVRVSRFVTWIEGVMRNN", "assay": "protease inhibition assay, Fab up to 1 µM", "units": {"Ki": "nM"}, "description": "as §1, §2", "values": [{"binder": "B1", "Ki": "> 1000"}, {"binder": "B6", "Ki": "> 1000"}, {"binder": "B4", "Ki": "> 1000"}]}, {"biological_target": "T3, Human elastase (human, UniProt P08246 30-247)", "T3 construct": "also called Human Neutrophil Elastase", "T3 sequence (looked up)": "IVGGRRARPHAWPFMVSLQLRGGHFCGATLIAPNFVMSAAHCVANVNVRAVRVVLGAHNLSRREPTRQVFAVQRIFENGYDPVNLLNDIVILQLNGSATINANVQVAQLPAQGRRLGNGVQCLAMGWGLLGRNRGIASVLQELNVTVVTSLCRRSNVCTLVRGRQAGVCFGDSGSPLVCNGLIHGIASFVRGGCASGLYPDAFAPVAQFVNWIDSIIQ", "assay": "protease inhibition assay, Fab up to 1 µM", "units": {"Ki": "nM"}, "description": "as §1, §2", "values": [{"binder": "B1", "Ki": "> 1000"}, {"binder": "B6", "Ki": "> 1000"}, {"binder": "B4", "Ki": "> 1000"}]}, {"biological_target": "T4, Human Tissue Kallikrein 8 (hK8) (human, UniProt O60259 33-260)", "T4 sequence (looked up)": "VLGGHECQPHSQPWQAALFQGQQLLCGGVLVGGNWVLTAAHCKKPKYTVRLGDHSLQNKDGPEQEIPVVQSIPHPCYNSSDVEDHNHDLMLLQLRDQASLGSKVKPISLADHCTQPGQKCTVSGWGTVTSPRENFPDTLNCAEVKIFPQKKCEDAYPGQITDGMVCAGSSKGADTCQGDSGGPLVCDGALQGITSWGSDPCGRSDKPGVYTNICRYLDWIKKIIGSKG", "assay": "protease inhibition assay, Fab up to 1 µM", "units": {"Ki": "nM"}, "description": "as §1, §2", "values": [{"binder": "B1", "Ki": "> 1000"}, {"binder": "B6", "Ki": "> 1000"}, {"binder": "B4", "Ki": "> 1000"}]}, {"biological_target": "kallikrein-like activity in sheep urine (tissue kallikrein, K1) (sheep)", "assay": "cell-based or functional assay", "units": {"IC50 of kallikrein-like activity in activated urine (Pro-Phe-Arg-AMC)": "nM"}, "values": [{"binder": "B7", "IC50 of kallikrein-like activity in activated urine (Pro-Phe-Arg-AMC)": 2.9}]}, {"biological_target": "T1, hK1 (human tissue kallikrein 1), …", "assay": "cell-based or functional assay", "units": {"IC50 (nM), inhibition of hK1 hydrolysis of Pro-Phe-Arg-AMC": "nM", "IC50 (nM), inhibition of hK1 enzyme activity": "nM"}, "values": [{"binder": "B1", "IC50 (nM), inhibition of hK1 hydrolysis of Pro-Phe-Arg-AMC": 0.4}, {"binder": "B2", "IC50 (nM), inhibition of hK1 hydrolysis of Pro-Phe-Arg-AMC": 10.1}, {"binder": "B3", "IC50 (nM), inhibition of hK1 enzyme activity": "> 120"}, {"binder": "B4", "IC50 (nM), inhibition of hK1 hydrolysis of Pro-Phe-Arg-AMC": 2.5}, {"binder": "B5", "IC50 (nM), inhibition of hK1 hydrolysis of Pro-Phe-Arg-AMC": 5.2}]}, {"biological_target": "T1, hK1 (human tissue kallikrein 1), …", "assay": "enzyme inhibition, tight-binding analysis, noncompetitive; Fab", "units": {"Ki": "nM"}, "values": [{"binder": "B4", "Ki": 1.9}]}]}
